This is an account of results in patent US20040106148A1, “Polypeptides” (priority 2000, published 2004).

Common to all, as to format: binding
Test [1] in a line: Protein-lipid overlay, panel of phosphoinositides. The following applies: GST fusion protein; for Interaction with any phosphoinositide tested: FIG. 2 / FIG. 4A; for Binding to any other phosphoinositide (than the one bound): FIG. 2. The procedure:
(§1) FIG. 2. Phosphoinositide binding properties of the novel PH domains. The ability of the indicated GST fusion proteins to bind a variety of phosphoinositides was analysed using a protein-lipid overlay. Serial dilutions of the indicated phosphoinositides (100 pmol, 50 pmol, 25 pmol, 12.5 pmol, 6.3 pmol, 3.1 pmol and 1.6 pmol) were spotted onto a nitrocellulose membranes which were then incubated with the purified GST fusion proteins. The membranes were washed and the GST-fusion proteins bound to the membrane by virtue of their interaction with lipid were detected using a GST antibody. A representative of at least 3 separate experiments carried out is shown.
FIG. 4. Comparison of the phosphoinositide binding properties of the N-terminal and C-terminal PH domains of TAPP1 and TAPP2. The ability of wild type and mutant forms of full length (FL) and isolated N-terminal (NT) and C-terminal (CT) PH domains of TAPP1 and TAPP2 GST-fusion proteins to interact with phosphoinositides were analysed using a protein-lipid overlay. Serial dilutions of the indicated phosphoinositides (100 pmol, 50 pmol, 25 pmol, 12.5 pmol, 6.3 pmol, 3.1 pmol and 1.6 pmol) were spotted onto a nitrocellulose membrane which was then incubated with the indicated purified GST fusion proteins. The membranes were washed and the GST-fusion proteins bound to the membrane by virtue of their interactions with lipid were detected using a GST antibody. A representative experiment of three is shown. The isolated N-terminal PH domain of human TAPP1 comprises residues 1 to 147, the isolated C-terminal PH domain of human TAPP1 comprises residues 95 to 404, the isolated N-terminal PH domain of mouse TAPP2 comprises residues 1 to 131 and the isolated C-terminal PH of mouse TAPP2 comprises residues 174 to 425.
Protein-Lipid overlay. To assess the phosphoinositide binding properties of each PH domain, a protein-lipid overlay assay was performed using the GST fusion proteins as described previously. Briefly, 1 μl of lipid solution containing 1-100 pmol of phospholipids dissolved in a mixture of choroform:methanol:water (1:2:0.8) was spotted onto Hybond-C extra membrane and allowed to dry at room temperature for 1 h. The membrane was blocked in 3% (by mass) fatty acid-free BSA in TBST (50 mM Tris/HCl pH 7.5, 150 mM NaCl and 0.1% Tween-20 (by vol) for lh. The membrane was then incubated overnight at 4° C. with gentle agitation in the same solution containing 0.2 μg/ml of the indicated GST fusion protein. The membranes were washed 6 times over 30 min in TBST and then incubated for 1 h with 1/1000 dilution of anti-GST monoclonal antibody (Sigma). The membranes were washed as before, then incubated for 1 h with 1/5000 dilution of anti-mouse-HRP conjugate (Pierce). Finally, the membranes were washed 12 times over 1 h in TBST and the GST-fusion protein bound to the membrane by virtue of its interaction with phospholipid was detected by enhanced chemiluminescence.
We studied the specificity and affinity of interaction of the PH domains for phosphoinositide lipids using either a “protein-lipid overlay” assay (FIG. 2) or the more quantitative surface plasmon resonance based approach (Table 2). For the protein-lipid overlay assay, serial dilutions of phosphoinositides were spotted on to a nitrocellulose membrane and incubated with the indicated GST PH domain fusion protein or GST-DAPP1 (that binds PtdIns(3,4,5)P3 and PtdIns(3,4)P2 [4]), GST-GRP1 (that binds only PtdIns(3,4,5)P3 [8]) and GST-phospholipase Cδ1 (that binds only PtdIns(4,5)P2 (Ferguson et al (1995) Cell 83, 1037-1046)) as controls. The membranes were then washed and immunoblotted with a GST antibody to detect GST fusion proteins bound to the membrane by virtue of their interaction with lipid. […]

Test [2] is described as follows: Protein-lipid overlay. The following applies: GST fusion protein, lipid spotted 1.6-100 pmol on membrane, FIG. 2 / FIG. 4. The procedure: as §1
FIG. 4. […] The ability of wild type and mutant forms of full length (FL) and isolated N-terminal (NT) and C-terminal (CT) PH domains of TAPP1 and TAPP2 GST-fusion proteins to interact with phosphoinositides were analysed using a protein-lipid overlay. […] The membranes were washed and the GST-fusion proteins bound to the membrane by virtue of their interactions with lipid were detected using a GST antibody. […]
We studied the specificity and affinity of interaction of the PH domains for phosphoinositide lipids using either a “protein-lipid overlay” assay (FIG. 2) or the more quantitative surface plasmon resonance based approach (Table 2). […]

Test [3] can be described thus: Protein-lipid overlay. The following applies: GST fusion protein, dipalmitoyl lipid spotted on membrane, FIG. 2. The procedure: as §1
(§2) Protein-Lipid overlay. To assess the phosphoinositide binding properties of each PH domain, a protein-lipid overlay assay was performed using the GST fusion proteins as described previously. […]
(§3) We studied the specificity and affinity of interaction of the PH domains for phosphoinositide lipids using either a “protein-lipid overlay” assay (FIG. 2) or the more quantitative surface plasmon resonance based approach (Table 2). […] For the surface plasmon resonance based assay, the apparent Kd values of the GST PH domain fusion proteins resulting from their interaction with a supported lipid monolayer containing a low mole fraction of phosphoinositide, was determined (Table 2).

Test [4] is described as follows: Protein-lipid overlay. The following applies: GST fusion protein, lipid spotted on membrane, FIG. 2 / FIG. 11. The procedure: as §1
Methods used are equivalent to those specified in the legend to FIG. 2.
as §2, §3

B1: NT-PH TAPP1: GST fusion of isolated N-terminal PH domain of human TAPP1, residues 1 to 147 (protein, UniProt Q9HB21 1-147, looked up, fragment)
chain: MPYVDRQNRICGFLDIEENENSGKFLRRYFILDTREDSFVWYMDNPQNLPSGSSRVGAIKLTYISKVSDATKLRPKAEFCFVMNAGMRKYFLQANDQQDLVEWVNVLNKAIKITVPKQSDSQPNSDNLSRHGECGKKQVSYRTDIVG
modifications: N-terminal PH domain GST fusion
As to B1, in test [1], the “Interaction with any phosphoinositide tested” value is reported as “failed to interact”.

B2: CT-PH TAPP1: GST fusion of isolated C-terminal PH domain of human TAPP1, residues 95 to 404 (protein, UniProt Q9HB21 95-404, looked up, fragment)
chain: NDQQDLVEWVNVLNKAIKITVPKQSDSQPNSDNLSRHGECGKKQVSYRTDIVGGVPIITPTQKEEVNECGESIDRNNLKRSQSHLPYFTPKPPQDSAVIKAGYCVKQGAVMKNWKRRYFQLDENTIGYFKSELEKEPLRVIPLKEVHKVQECKQSDIMMRDNLFEIVTTSRTFYVQADSPEEMHSWIKAVSGAIVAQRGPGRSASSEHPPGPSESKHAFRPTNAATATSHSTASRSNSLVSTFTMEKRGFYESLAKVKPGNFKVQTVSPREPASKVTEQALLRPQSKNGPQEKDCDLVDLDDASLPVSDV
modifications: C-terminal PH domain GST fusion
Take B2: the “Interaction with PtdIns(3,4)P2” value in “Protein-lipid overlay [2]” is listed as “interacted with PtdIns(3,4)P2”. The “Interaction with PtdIns(3,4,5)P3” value in “Protein-lipid overlay [3]” is given as “did not bind”. Further, the “Binding to any other phosphoinositide (than the one bound)” value (from here on “Binding … (than the one bound)”) in test [1] is reported as “did not bind”.

B3: N-terminal PH domain of TAPP2: GST fusion of isolated N-terminal PH domain of mouse TAPP2, residues 1 to 131 (protein, UniProt Q9ERS5 1-131, looked up, fragment)
chain: MPYVDRQNRICGFLDIEDNENSGKFLRRYFILDTQANCLLWYMDNPQNLAVGAGAVGSLQLTYISKVSIATPKQKPKTPFCFVINALSQRYFLQANDQKDLKDWVEALNQASKITVPKAGTVPLATEVLKN
modifications: N-terminal PH domain GST fusion
In the case of B3, the “Interaction with any phosphoinositide tested” value in test [1] is on record as “failed to interact”.

B4: evectin-2: GST fusion of human evectin-2 residues 1 to 167 (protein, UniProt Q96CS7 1-167, looked up, fragment)
chain: MAFVKSGWLLRQSTILKRWKKNWFDLWSDGHLIYYDDQTRQNIEDKVHMPMDCINIRTGQECRDTQPPDGKSKDCMLQIVCRDGKTISLCAESTDDCLAWKFTLQDSRTNTAYVGSAVMTDETSVVSSPPPYTAYAAPAPEQAYGYGPYGGAYPPGTQVVYAANGQA
modifications: GST fusion
With B4, the “Binding … (than the one bound)” value in test [1] was “interacted more weakly”.

B5: FAPP1: GST fusion of the PH domain of human FAPP1 (residues 1 to 99), PtdIns-Four-phosphate AdaPtor Protein-1, expressed in E. coli (protein, UniProt Q9HB20 1-99, looked up, fragment)
chain: MEGVLYKWTNYLTGWQPRWFVLDNGILSYYDSQDDVCKGSKGSIKMAVCEIKVHSADNTRMELIIPGEQHFYMKAVNAAERQRWLVALGSSKACLTDTR
modifications: PH domain GST fusion
notes: GST fusion of the PH domain of human FAPP1 (residues 1 to 99), PtdIns-Four-phosphate AdaPtor Protein-1, expressed in E. coli
Regarding B5, in the test “Protein-lipid overlay [4]”, the “Interaction with PtdIns4P” value is “high affinity”. The “Binding … (than the one bound)” value in test [1] is “did not bind”.

B6: pleckstrin-2: GST fusion of mouse pleckstrin-2 residues 1 to 249 (protein, UniProt Q9WV52 1-249, looked up, fragment)
chain: MEDGVLKEGFLVKRGHIVHNWKARWFILRQNTLLYYKLEGGRRVTPPKGRIVLDGCTITCPCLEYENRPLLIKLKTRTSTEYFLEACSREERDSWAFEITGAIHAGQPGKIQQLHILKNSFKLPPHISLHRIVDKMHDTSTGIRPSPNMEQGSTYKKTFLGSSLVDWLISSNFAASRLEAVTLASMLMEENFLRPVGVRSMGAIRSGDLAEQFLDDSTALYTFAESYKKKVSSKEEISLSTMELSGTVV
modifications: GST fusion
As to B6, in test [1], the “Interaction with any phosphoinositide tested” value was “interacted with several phosphoinositides”.

B7: PH domain of mouse centaurin-β2: GST fusion of mouse centaurin-β2 residues 266 to 390, expressed in 293 cells (protein, UniProt Q6ZQK5 266-390, looked up, fragment)
chain: GIVMEGYLFKRASNAFKTWNRRWFSIQNNQLVYQKKFKDSPTVVVEDLRLCTVKHCEDIERRFCFEVVSPTKSCMLQADSEKLRQAWIKAVQTSIATAYREKGDESEKLDKKSSPSTGSLDSGNE
modifications: PH domain GST fusion
notes: GST fusion of mouse centaurin-β2 residues 266 to 390, expressed in 293 cells
Regarding B7, the “Binding … (than the one bound)” value in test [1] is given as “did not bind”.

B8: C-terminal PH domain of TAPP2: GST fusion of isolated C-terminal PH domain of mouse TAPP2, residues 174 to 425 (protein, UniProt Q9ERS5 174-425, looked up, fragment)
chain: GTHAFLRRSQSYIPTSGCRPSTGPPLIKSGYCVKQGNVRKSWKRRFFALDDFTICYFKCEQDREPLRTIPLKDVLKTHECLVKSGDLLMRDNLFEIITTSRTFYVQADSPEDMHSWIEGIGAAVQALKCHPREPSFSRSISLTRPGSSTLTSAPNSILSRRRPPAEEKRGLCKAPSVASSWQPWTPVPQAEEKPLSVEHAPEDSLFMPNPGESTATGVLASSRVRHRSEPQHPKEKPFVFNLDDENIRTSDV
modifications: C-terminal PH domain GST fusion
Take B8: the “Interaction with PtdIns(3,4)P2” value in “Protein-lipid overlay [2]” is on record as “interacted with PtdIns(3,4)P2”. The “Interaction with PtdIns(3,4,5)P3” value in the test “Protein-lipid overlay [3]” was “did not bind”. Besides, the “Binding … (than the one bound)” value in test [1] is “did not bind”.
